Experimental data from patent US8975044B2, “Polynucleotides encoding for frizzled-binding agents and uses thereof” (OncoMed Pharmaceuticals, Inc., priority 2008, dated 2015).

Key:
[1] = tested on: OMP-Pn4 pancreatic tumor xenografts; experiment: OMP-Pn4 pancreatic tumor xenograft growth; format: in vivo, NOD/SCID mice; conditions: 10 mg/kg IP once weekly
Protocol: In another embodiment, anti-FZD antibodies were analyzed for their ability to reduce the growth of OMP-Pn4 pancreatic tumor xenografts. NOD/SCID mice were purchased from Harlan (Indianapolis, Ind.) and allowed to acclimate for several days prior to the studies. The establishment and characterization of in vivo cancer stem cell-driven pancreas xenograft models were described previously (Li et al., Cancer Res., 67:1030-7, 2007). For efficacy studies, OMP-Pn4 human pancreatic tumor cells were dissociated into single cell suspensions, resuspended in 1:1 (v/v) mixture of FACS buffer (Hank's balanced salt solution [HBSS] supplemented with 2% heat-inactivated fetal bovine serum and 20 mM Hepes) and Matrigel (BD Bioscience, San Jose, Calif.) and implanted subcutaneously into the right flank region of 6-7 weeks old male NOD/SCID mice with a 25-gauge needle containing 50,000 cells/100 μL. Tumor growth was monitored weekly and tumor measurements were initiated once tumors were palpable. […] Tumor growth was measured by with an electronic caliper (Coast Tools Company, San Leandro, Calif.). Tumors were measured once a week and tumor volume was determined using the formula ½(a×b^2); where a=length (longest axis of the tumor), and b=breadth (shortest axis of the tumor). […] Data are expressed as mean±S.E.M. Differences in mean values between groups were analyzed by non-parimetric t test. […]

OMP-C28 tumors = experiment: Flow cytometry of ESA and CD44 on cells of treated OMP-C28 tumors; format: in vivo, NOD/SCID mice; conditions: tumors harvested day 48; control antibody 64%
Protocol: Control and treated tumors from the OMP-C28 xenograft study described above (Example 7) were harvested at the end of the study (day 48). The tumors were processed and dissociated into single cells. Tumor cells were then incubated with biotinylated mouse antibodies (α-mouse CD45-biotin 1:200 dilution and rat α-mouse H2 Kd-biotin 1:100 dilution, BioLegend, San Diego, Calif.) on ice for 30 min followed by addition of streptavidin-labeled magnetic beads (Invitrogen, Carlsbad, Calif.) to remove mouse cells with the aid of a magnet.
For analysis of cell surface markers, the single tumor cell suspension was stained with anti-ESA (Biomeda) and anti-CD44 (BD Biosciences) antibodies which were directly conjugated to fluorochromes. Dead cells were excluded by using the viability dye DAPI. Flow cytometry was performed using a FACS Aria (Becton Dickinson). Side scatter and forward scatter profiles were used to eliminate cell clumps.

PN13 tumors = experiment: Alcian blue and ki67 staining of treated PN13 tumor sections; format: in vivo, NOD/SCID mice; conditions: vs control antibody
Protocol: FIG. 43. Treatment with anti-FZD antibody 18R5 promotes differentiation of tumor cells into non-proliferative mucinous cells. NOD/SCID mice were injected with 50,000 OMP-PN13 pancreatic tumor cells and on day 23, mice with tumors of average volume of about 107 mm^3 were randomized, and treatment with control antibody or 18R5 was initiated four days later. After 20 days tumors were collected and sectioned. Tumor sections from 18R5 treated mice or control antibody treated mice were stained with alcian blue stain to reveal mucinous cells and by immunohistochemistry with antibody to ki67 to reveal proliferative cells. Exemplary mucinous cells and proliferative cells are highlighted by arrows.
Increased mucinous cells were also noted in a second pancreatic tumor line, PN13, following treatment with 18R5 […] (FIG. 43). In this experiment mice bearing PN13 tumors were treated as described above (Example 7). Tumors sections were stained with alcian blue to reveal mucinous cells and also stained by immunohistochemistry with an antibody to ki67 to reveal cells undergoing proliferation. […] Additionally, the frequency of ki67 positive cells was reduced by 18R5 treatment. […] This provides evidence that 18R5 treatment is promoting the differentiation of tumor cells into non-proliferative progeny.

Wnt target genes = experiment: qPCR of Wnt target genes in duodenum of OMP-PN13-bearing mice; format: in vivo, NOD/SCID mice
Protocol: Frozen OMP-PN13 tumor cells that have been passaged twice in mice were obtained from Oncomed's tumor bank. They were thawed and injected subcutaneously into the left flank of NOD/SCID mice immediately following thawing. ˜ 25,000 viable cells were injected per animal. The mice were monitored weekly for tumor growth. After their onset, the size of the tumors was measured once weekly by caliper. 200-300 mm^3 tumor-bearing mice were dispatched in treatment groups that each contained 5 animals. […] Ab treatment was initiated the day after randomization. LZ1 was used as the negative control Ab. 3 doses of 10 mg/kg of Ab were administered via intra-peritoneal injection over a 12-day period. Mice were euthanized 24 hours after the last injection. Tumor, duodenum and liver were harvested.
Total RNAs were also extracted from tumor, duodenum and liver for Wnt target gene expression analyses using qPCR.
Tissues were immediately transferred into RNAlater (QIAGEN) at the time of harvest. RNA was extracted using the QIAGEN RNeasy for Fibrous Tissue mini kit according to the manufacturer instructions. […] All 5 tumors of each treatment group were analyzed. […] ABI SDS 2.2.1 software was used to analyze the data and calculate DeltaCt values that were converted into relative quantities. […] Fold inhibition factors were then calculated relative to control antibody (LZ1).

PE13 breast tumors = experiment: PE13 breast tumor limiting dilution assay (LDA); format: in vivo, mice; conditions: antibody 20 mg/kg once per week; 50, 150 or 500 cells re-injected, 59 days; L-calc
Protocol: PE13 breast tumor limiting dilution assay (LDA) study with 18R5 mAb: Animals bearing PE13 breast tumors were treated with either control antibody (gray circles), 18R5 (open triangles), taxol (black circles), or the combination of taxol and 18R5 (open squares). Taxol was dosed at 15 mg/kg twice per week and the antibodies were dosed 20 mg/kg once per week. Tumors were harvested and the human tumor cells were purified by lin depletion. 50, 150, or 500 tumor cells were injected into a new cohort of mice (n=10 per cell dose). Tumor growth frequency was monitored after 59 days and used to calculate the CSC frequency (L-calc).

B1: 18R5: human anti-FZD antibody; VH SEQ ID NO:10 (as 18R8), VL SEQ ID NO:14; binds FZD1, 2, 5, 7, 8 (antibody, V domains shown)
VH: EVQLVESGGGLVQPGGSLRLSCAASGFTFSHYTLSWVRQAPGKGLEWVSVISGDGSYTYYADSVKGRFTISSDNSKNTLYLQMNSLRAEDTAVYYCARNFIKYVFANWGQGTLVTVSS
VL: DIELTQPPSVSVAPGQTARISCSGDNIGSFYVHWYQQKPGQAPVLVIYDKSNRPSGIPERFSGSNSGNTATLTISGTQAEDEADYYCQSYANTLSLVFGGGTKLTVLG
modifications: 18R5/18R8 heavy chain variable region (VH); 18R5 light chain variable region (VL)
[1]
  tumor growth, monotherapy: did not result in a significant reduction in tumor growth
OMP-C28 tumors
  bulk tumor population expressing both ESA and CD44 at high levels (double positive): 40%
PN13 tumors
  alcian blue positive mucinous cells: greatly increased numbers of alcian blue positive mucinous cells
  frequency of ki67 positive cells: reduced
Wnt target genes; fold relative to control antibody LZ1, 3 doses of 10 mg/kg over 12 days
  duodenum Lgr5: −2.6x
Wnt target genes; relative to LZ1
  Wnt target gene in the duodenum: unaffected
PE13 breast tumors
  breast cancer stem cell frequency: Reduction of breast cancer stem cell frequency
